# Test results as given in the supplement of paper PMC7125110.
# ± gives the standard error. For part of these data: This sample holds only a part of the variants without activity.
# B1: glmS ribozyme (parent)
# chain: AUAAAAGCGCCAGAACUACAGAAAUGUAGUUGACGAGGAGGAGGUUUAUCGAAUUUUCGGCGGAUGCCUCCAAA
# What was measured:
# Settings in all cases: with glucosamine-6-phosphate
# glucosamine-6-phosphate [1] = variants of: B1; assay: kcat; higher = faster cleavage; RNA array
# Outline: (§1)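 Glucosamine-6-phosphate (40 μM to 10 mM) in HEPES/KCl/Mg(OAc)2 buffer was flowed over sequenced MiSeq chips, and tiles were imaged over ~14 h. Barcoded ribozyme variants there had been transcribed in situ by E. coli RNA polymerase and were tracked through a hybridised Cy3 probe at 37 °C. One- or two-exponential decay fits to per-tile medians, normalised to baseline and to non-cleaving reference variants, gave kobs. kcat and KM came from weighted Michaelis–Menten fits across concentrations.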
# glucosamine-6-phosphate [2] = variants of: B1; assay: KM; higher = weaker cofactor use; RNA array
# Outline: as §1
# glucosamine-6-phosphate [3] = variants of: B1; assay: self-cleavage kobs at 640 uM GlcN6P; higher = faster cleavage; RNA array
# Outline: as §1
# glucosamine-6-phosphate [4] = variants of: B1; assay: self-cleavage kobs at 2500 uM GlcN6P; higher = faster cleavage; RNA array
# Outline: as §1
# glucosamine-6-phosphate [5] = variants of: B1; assay: self-cleavage kobs at 10000 uM GlcN6P; higher = faster cleavage; RNA array
# Outline: as §1
# glucosamine-6-phosphate [6] = variants of: B1; assay: self-cleavage kobs at 160 uM GlcN6P; higher = faster cleavage; RNA array
# Outline: as §1
# glucosamine-6-phosphate [7] = variants of: B1; assay: self-cleavage kobs at 40 uM GlcN6P; higher = faster cleavage; RNA array
# Outline: as §1
variant,measurement,setting,value
G41U C58A,kcat,glucosamine-6-phosphate [1],1.21e-05 ± 4e-06 s⁻¹
A42U U47A,kcat,glucosamine-6-phosphate [1],0.00012 ± 2.9e-06 s⁻¹
same,KM,glucosamine-6-phosphate [2],1210 ± 91 µM
same,self-cleavage kobs at 640 uM GlcN6P,glucosamine-6-phosphate [3],4.11e-05 ± 1.2e-05 s⁻¹
same,self-cleavage kobs at 2500 uM GlcN6P,glucosamine-6-phosphate [4],8.23e-05 ± 1.3e-05 s⁻¹
same,self-cleavage kobs at 10000 uM GlcN6P,glucosamine-6-phosphate [5],0.000106 ± 1.7e-05 s⁻¹
G40C G63C,kcat,glucosamine-6-phosphate [1],< 1e-05 s⁻¹
same,self-cleavage kobs at 160 uM GlcN6P,glucosamine-6-phosphate [6],< 1e-05 s⁻¹
same,self-cleavage kobs at 2500 uM GlcN6P,glucosamine-6-phosphate [4],< 1e-05 s⁻¹
G43C C67G,kcat,glucosamine-6-phosphate [1],0.000698 ± 0.00015 s⁻¹
same,KM,glucosamine-6-phosphate [2],2490 ± 1200 µM
same,self-cleavage kobs at 640 uM GlcN6P,glucosamine-6-phosphate [3],0.000186 ± 3.6e-05 s⁻¹
same,self-cleavage kobs at 2500 uM GlcN6P,glucosamine-6-phosphate [4],0.000454 ± 0.0001 s⁻¹
same,self-cleavage kobs at 10000 uM GlcN6P,glucosamine-6-phosphate [5],0.000541 ± 5.7e-05 s⁻¹
A42G U47G,kcat,glucosamine-6-phosphate [1],0.00929 ± 0.0033 s⁻¹
same,self-cleavage kobs at 40 uM GlcN6P,glucosamine-6-phosphate [7],0.000293 ± 6.2e-05 s⁻¹
same,self-cleavage kobs at 160 uM GlcN6P,glucosamine-6-phosphate [6],0.00105 ± 0.00032 s⁻¹
same,self-cleavage kobs at 640 uM GlcN6P,glucosamine-6-phosphate [3],0.0029 ± 0.00064 s⁻¹
same,self-cleavage kobs at 2500 uM GlcN6P,glucosamine-6-phosphate [4],0.0046 ± 0.001 s⁻¹
same,self-cleavage kobs at 10000 uM GlcN6P,glucosamine-6-phosphate [5],0.0143 ± 0.0028 s⁻¹
A42C C67G,kcat,glucosamine-6-phosphate [1],8.04e-05 ± 1.5e-05 s⁻¹
same,self-cleavage kobs at 2500 uM GlcN6P,glucosamine-6-phosphate [4],6.32e-05 ± 1.4e-05 s⁻¹
same,self-cleavage kobs at 10000 uM GlcN6P,glucosamine-6-phosphate [5],6.4e-05 ± 4.6e-06 s⁻¹
G40C G41U,kcat,glucosamine-6-phosphate [1],8.06e-05 ± 2.1e-05 s⁻¹
same,self-cleavage kobs at 2500 uM GlcN6P,glucosamine-6-phosphate [4],8.04e-05 ± 1.1e-05 s⁻¹
same,self-cleavage kobs at 10000 uM GlcN6P,glucosamine-6-phosphate [5],6.61e-05 ± 7.9e-06 s⁻¹
G40A U65A,kcat,glucosamine-6-phosphate [1],0.00131 ± 0.0003 s⁻¹
same,KM,glucosamine-6-phosphate [2],2690 ± 980 µM
same,self-cleavage kobs at 40 uM GlcN6P,glucosamine-6-phosphate [7],3.89e-05 ± 8.4e-06 s⁻¹
same,self-cleavage kobs at 160 uM GlcN6P,glucosamine-6-phosphate [6],7.08e-05 ± 1.3e-05 s⁻¹
same,self-cleavage kobs at 640 uM GlcN6P,glucosamine-6-phosphate [3],0.000213 ± 4.3e-05 s⁻¹
same,self-cleavage kobs at 2500 uM GlcN6P,glucosamine-6-phosphate [4],0.000615 ± 0.00011 s⁻¹
same,self-cleavage kobs at 10000 uM GlcN6P,glucosamine-6-phosphate [5],0.00106 ± 0.00012 s⁻¹
G40A U65G,kcat,glucosamine-6-phosphate [1],0.00247 ± 0.00015 s⁻¹
same,KM,glucosamine-6-phosphate [2],2990 ± 340 µM
same,self-cleavage kobs at 40 uM GlcN6P,glucosamine-6-phosphate [7],3.72e-05 ± 1.4e-05 s⁻¹
same,self-cleavage kobs at 640 uM GlcN6P,glucosamine-6-phosphate [3],0.000421 ± 0.0001 s⁻¹
same,self-cleavage kobs at 2500 uM GlcN6P,glucosamine-6-phosphate [4],0.00107 ± 0.00028 s⁻¹
same,self-cleavage kobs at 10000 uM GlcN6P,glucosamine-6-phosphate [5],0.00192 ± 0.00028 s⁻¹
G41C A64G,kcat,glucosamine-6-phosphate [1],0.000146 ± 1.2e-05 s⁻¹
same,KM,glucosamine-6-phosphate [2],1760 ± 510 µM
same,self-cleavage kobs at 640 uM GlcN6P,glucosamine-6-phosphate [3],3.48e-05 ± 8.4e-06 s⁻¹
same,self-cleavage kobs at 2500 uM GlcN6P,glucosamine-6-phosphate [4],0.000107 ± 1.8e-05 s⁻¹
same,self-cleavage kobs at 10000 uM GlcN6P,glucosamine-6-phosphate [5],0.000122 ± 8.8e-06 s⁻¹
G44A G66A,kcat,glucosamine-6-phosphate [1],0.000681 ± 0.00022 s⁻¹
same,self-cleavage kobs at 160 uM GlcN6P,glucosamine-6-phosphate [6],4.37e-05 ± 1.7e-05 s⁻¹
same,self-cleavage kobs at 640 uM GlcN6P,glucosamine-6-phosphate [3],0.000259 ± 4.6e-05 s⁻¹
same,self-cleavage kobs at 2500 uM GlcN6P,glucosamine-6-phosphate [4],0.000848 ± 0.00022 s⁻¹
same,self-cleavage kobs at 10000 uM GlcN6P,glucosamine-6-phosphate [5],0.000527 ± 0.0001 s⁻¹
G44U U46C,kcat,glucosamine-6-phosphate [1],1.46e-05 ± 1.4e-06 s⁻¹
same,KM,glucosamine-6-phosphate [2],5110 ± 1200 µM
A42U U55A,kcat,glucosamine-6-phosphate [1],0.000213 ± 6.1e-06 s⁻¹
same,KM,glucosamine-6-phosphate [2],1260 ± 86 µM
same,self-cleavage kobs at 640 uM GlcN6P,glucosamine-6-phosphate [3],7.19e-05 ± 1.1e-05 s⁻¹
same,self-cleavage kobs at 2500 uM GlcN6P,glucosamine-6-phosphate [4],0.000143 ± 2.6e-05 s⁻¹
same,self-cleavage kobs at 10000 uM GlcN6P,glucosamine-6-phosphate [5],0.000188 ± 2.2e-05 s⁻¹
G40C C71A,kcat,glucosamine-6-phosphate [1],0.00654 ± 0.0028 s⁻¹
same,self-cleavage kobs at 40 uM GlcN6P,glucosamine-6-phosphate [7],0.000225 ± 3.8e-05 s⁻¹
same,self-cleavage kobs at 160 uM GlcN6P,glucosamine-6-phosphate [6],0.000451 ± 6.2e-05 s⁻¹
same,self-cleavage kobs at 640 uM GlcN6P,glucosamine-6-phosphate [3],0.00213 ± 0.00024 s⁻¹
same,self-cleavage kobs at 10000 uM GlcN6P,glucosamine-6-phosphate [5],0.00527 ± 0.00096 s⁻¹
G41C A42G,kcat,glucosamine-6-phosphate [1],0.00017 ± 1e-05 s⁻¹
same,KM,glucosamine-6-phosphate [2],1210 ± 190 µM
same,self-cleavage kobs at 640 uM GlcN6P,glucosamine-6-phosphate [3],6.25e-05 ± 1e-05 s⁻¹
same,self-cleavage kobs at 2500 uM GlcN6P,glucosamine-6-phosphate [4],0.000107 ± 1.5e-05 s⁻¹
same,self-cleavage kobs at 10000 uM GlcN6P,glucosamine-6-phosphate [5],0.000158 ± 1.9e-05 s⁻¹
G41C A42U,kcat,glucosamine-6-phosphate [1],4.23e-05 ± 1.3e-06 s⁻¹
same,KM,glucosamine-6-phosphate [2],1050 ± 290 µM
same,self-cleavage kobs at 160 uM GlcN6P,glucosamine-6-phosphate [6],< 1e-05 s⁻¹
same,self-cleavage kobs at 10000 uM GlcN6P,glucosamine-6-phosphate [5],3.82e-05 ± 6.7e-06 s⁻¹
G40C C70G,kcat,glucosamine-6-phosphate [1],0.000147 ± 2.2e-05 s⁻¹
same,KM,glucosamine-6-phosphate [2],973 ± 420 µM
same,self-cleavage kobs at 640 uM GlcN6P,glucosamine-6-phosphate [3],5.48e-05 ± 8.7e-06 s⁻¹
same,self-cleavage kobs at 2500 uM GlcN6P,glucosamine-6-phosphate [4],0.000163 ± 2.9e-05 s⁻¹
same,self-cleavage kobs at 10000 uM GlcN6P,glucosamine-6-phosphate [5],0.000128 ± 1.3e-05 s⁻¹
